The source of these data is a protein production outcome set (Wang et al. 2014).

This series can be described thus: label from the status in PepcDB records.
As for “MDKTIYEQMLLKNYKGAEGAEEAWDARANHFYKSQQRGRSELVEKVTAILQERGLLAGADLLDIGGGSGRYAVPFAAHAEHVTITDISANMLELARRNAQEAGVTNLTYAKLEWTGADLAAWQWRKRFDLVFASMCPAIRSPEGLYKMLEAAKGFCLINQYIEATDSLSAYLTQVLDPPRSYEPYNDRDMVQAVFNLLWLEGYEPEICYLRQREVTSFTVEGAVEQYGGRYHQAAQLKRMDLAELISRHAGQVTFSVDSKATLAMILWKV”, the protein production result was “failed”.

Turning to “MVLKERHKKICLLPSYSRLAHYPGLLMLTTLIYRSHIRGDEPVKKIEEMVSIANRRNMRSDVTGILLFNGSHFFQLLEGPEEQVQMIYRAICQDPRHYNIVELLCDYAPARRFGKAGMELFDLRLHERDDVLQAVFDKGTSKFQLTYDDRALQFFRTFVLATEQSTYFEIPAEDSWLFIADGSDKELDSCTLSSNINDHFAFHPIVDPLSRRIIAFEAIVQKNEDSPSAIAVGQRKDEEIYTADLKSKALAFAMAHALKLGDKMISINLLPMTLVNKPDAVSFLLDEIKANALVPEQIIVEFTESEVISRFDEFAEAVKSLKAAGISVAIDHFGAGFAGLLLLSRFQPDRIKISQELITNVHKSGPRQAIIQAIMKCCTSLEIQVSAMGVATPEEWMWLESAGIEMFQGDLFSKAKLNGIPSVAWPEKK”, the protein production entry is reported as “failed”.

“MVSKECCRNEIRAAIRQLSDRCLYSAAKWAGEQLVGIEQDPSNFTPANTRFQRGSSSIRRRFSTNESISTPLPSVGFSQAATPLPEEDEAIDGDIYLLAKSYFDCREYRRASHMLRDQVSKKSLFLRYYALYLAGEKRKEEEMIELEGPLGKSDAINRELVSLERDLSALRRTGAIDSFGLYLYGVVLKEKGNESLARASLVESVNSYPWNWSAWSELQSLCTSIEILNSLNLNNHWMKEFFLGNAYQELRMHTESLAKYEYLQGIFSFSNYIQAQTAKAQYSLREFDQVEIMFEELLRNDPYRVEDMDLYSNVLYAKEACAALSYLAHKVFLTDKYRPESCCIIGNYYSLKGQHEKAVMYFRRALKLNKKYLSAWTLMGHEYVEMKNTPAAIDAYRRAVDINPTDYRAWYGLGQAYEMMGMPFYALHYFRKSIFFLPNDSRLWIAMAKCYQTEQLYMLEEAIKCYKRAVNCTDTEGIALNQLAKLHQKLGRNEEAAYYFEKDLERMDAEGLEGPNMFEALVFLATHFKNHKKFEEAEVYCTRLLDYSGPEKEKAKSLLRGIRMAQTGFPSMDLEHFPI”: the protein production entry is “failed”.

Take “MNKLKYYCLRYQPYLLGVAFFLAIFLVWAIGRAFGFASLHSLLAGIGVFLLLSAGYVLLLYRGVGQHHNLEGLLRDDADQAVLSAAPADREEVSLLRERLLQGIERLHSNKPRGTSNKDALYALPWYLVIGQPAAGKSTMILQSGLNFPYAEREGVRVAGLGGTRNCDWFFSSEAVLLDTAGRYMNSPEEAGKWRGFLQLLRQHRQRRPLNGLIVSVSIADILHGSVEDQERVAKRLRERIQESCALLEVRLPIYLVFTKCDLIPGFTAFYRQLDDAARGEVMGKTFSHKGYEQADWGQRFSNAMDELTRYWGQMASQQLVQQDIQVTRRNDAAYRFPLELAALKPRLHQFVDSLLRANPYQNAEMLRGFYFTAALQADEAQWGCHGQHVAERFALEHAEGTGTAGSQPAPLFINSLFRKVIIPDQHLVALYTSNHRERRRKAGWVGAAGLAALVLCSLWGWSYLNNRATLASIADELAQAKADDQAASGQYTAWRSLDRLRFWAAHYHEQHHAKGVPLGMRLGLYQGHEVEPLLRDRYFATLQNVMLKPTADNLTRTLYLLTTLKVYQRNTRELQPVSGIDSVEAEALPHDNRAQSIANFGKAALDTYVMLSPGQREHADPAFLKAHLPDYWYPAIARQTGKSMAAAGSEAGGNQDYLYASRQITFYSDQIREPDVPRILDNAFLMSSSRNYIDSLRAQSLRAIETITLESDTLFAFGRADFQSLKNEGQHQLSAIASKLLNTPNIGKIIISGHADQLGDSQGNLQVSKQRAQTIRTYLVGKGVPAELVVAQGEGSRKPLVNCDMQQPRTQLIKCLEPNRRVEIEVRGLN”: the protein production entry is given as “failed”.

For the sequence “MVDKGVVNNVDECVEGTDHCHIDAICQNTPRSYKCICKSGYTGDGKHCKDVDECEREDNAGCVHDCVNIPGNYRCTCYDGFHLAHDGHNCLDVDECAEGNGGCQQSCVNMMGSYECHCRDGFFLSDNQHTCIQRPEEGMNCMNKNHGCAHICRETPKGGIACECRPGFELTKNQRDCKLTCNYGNGGCQHTCDDTEQGPRCGCHVKFVLHTDGKTCIETCAVNNGGCDSKCHDAATGVHCSCPVGFMLQPDRKTCKDIDECRLHNGGCDHICRNTVGSFECSCKKGYKLLINERSCQDIDECSFDRTCDHMCVNTPGSFQCLCHRGYLLYGISHCGDVDECSINKGGCRFGCINTPGSYQCTCPAGQGRLHWNGKDCTEPVKCQSSSGASKAMLSCSRSGKKDTCALTCPSRARFLPESENGFTVSCGTPSPKAAAGRAIHPGNSTISNSCHEAAVLPVKQRASFKIKDAKCRLHLRNKGKAEEASGRTPGPGGASCSDCQVTFIHLKCDSSRKGKGRRARTPPGKEVTRLTLELEAEVRAEETTAGCGLTCLRQRMERRLKGSLKMLRKSINQDRFLLRLAGLDYELAHKPGLAAGDRAELVEVCRPGQHRAGTKCVSCPQGTYYHGQTEQCVPCPAGTFQEREGQLSCDLCPGSDAHGPLGATNVTTCAGQCPPGQHSGDGFKPCQPCPRGTYQPEAGRTLCFPCGGGLTTKHEGAVSFQDCDTKVQCSPGHYYNTSIHRCIRCAVGSYQPDFRQNFCTRCPGNTSADFDGSTSVAQCKNRQCGGELGEFTGYIESPNYPGNYPAGVECIWNINPPPKRKILIVVPEIFLPSEDECGDVLVMRKNSSPSSITTYETCQTYERPIAFTARSRKLWINFKTSEANSARGFQIPYVTYDEDYEQLVEDIVRDGRLYASENHQEILKDKKLIKAFFEVLAHPQNYFKYTEKHKEMLPKSFIKLLRSKVSSFLRPYK”, the protein production result was “failed”.

For the sequence “MQIGLEAGLTNQLIDEIDQQPGHLPLLEFALTQLWSKQQNRLLTHQAYQEIGGVEEALANHAEAVYAQLTEADRQRAQQIFIQLVRLGDDTEATRRLTTREEVRLENWDLVTRLASSRLVVTNRNESTAEETVEIVHEALIRSWGRLEQWLIVDGDFLRWREQLRLAIRLWENSGHDQGVLLRGKALIDAQEWQLQRAQELNTNEIRFINKSGELRELEVKQQQRIRKIGISSLVTGLILALGLAGVAWLQGQKARMSETKAISSSAESFLNANLEFDGLIASIRAGRRIKGTDGIDANTRTQITETLQQSINFVREKNRLAEHDGMLESVSFSPDSKFIATASRDKTVKIWSLDGKKQLVVLREEKGEGFNSVAFSPDGTLMATGSWDNTAKIWSREGKRLHTLDGHKEAVLEVAFSPDSQLLATASWDNTVKLWSREGKLLHTLEGHKDKVNSITFSPDGQLIATVGWDNTMKLWNLDGKELRTFRGHQDMIWSVSFSPDGKQIATASGDRTVKLWSLDGKELQTLRGHQNGVNSVTFSPDGKLIATASGDRTVKLWNSKGQELETLYGHTDAVNSVAFSPDGTSIATAGNDKTAKIWKLNSPNSIIVRGHEDEVFDLVFSPNGKYIATASWDKTAKLWSIVGDKLQELRTFNGHQGRVNKLSFSPDGKYIATTSWDKTAKLWNLDGTLQKTLTGHKDTVWSVNFSPDGQLIATASEDKTVKLWNRDGELLKTLPRQSSVVNSAVFSPDGKLIATAGWDKTVKIWSIDGRLQKTLTGHTSGINSVTFSPDGKLIASASWDNTVKIWNLDGKELRTLRGHKNVVHNVTFSPDGKLIATASGDNTVKIWNINGQELRTLRGYKDAVWSLRFSLDGKTLATGSRYDIVVWHLYLDDLDQLLVRGCDWARDYLQNNPNVNPDEKSLCDGIRPIAQQ”, the protein production result is “failed”.

Take “MFVYAYILMLLLTVLMCINLFIDSFKCPVKIRRILRGLVFLIMLRYVTLLIMCLKKSITYIYFMRPIVLLDILYIPLVILIMIFVFTRSAKFNFVYAAISGIIFFSLYIFLNFKILKTANPFYSYSFGYLIDLKSYSVVVAVVKVMVLILMLMLCGYFLRKSNIRRAGFCFLMIVILVMLVENISIIIMPKVMPEYLFGEVLLLICLNYMVRLFKK”: the protein production result is “failed”.

“MAFRYEHQEPGSRVISGGRDHSNRLLERLGFTVIDGRPTTVEGERAWRLAVWSHLQLTEDLSQVPPGVLRAFGVYGGGQGIWMDKARTDAVHEGGITMGVLHTGAHYPDEISDNDVIYHYPTTGRGPGRDESEVAATKAAATLKLPIFVIAKPTPRSSVRIVRLAWVEGWEERSRIFLISFGDSRPEHLLTEDHSDNQPFSLTGNRSRSSRRNVRERPGQRRFKLRVFQRYGPRCPLSGIAVPEMIEAAHLRPDAEDGTDDPRNGLPLNAALHRAYDAYLFAIEPETLSVVTRPQGPTIEELGIFTPHLRELPRRPHTEALRWRYREWQLRIGTQG”: the protein production entry is reported as “failed”.

Take “MTTDNPLISIYMPTWNRQQLAIRAIKSVLRQDYRHWEMIIVDDCSSSYQQLQQFVEELNDPRVRYTHNARNTGACAVRNQAIMQAQGHYITGIDDDDEWTPNRLSVFLAHKHQLTTHAFLYANDYVCEGEVYSQPASLPLYPKSPYSRRLFYKRNIIGNQVFTWAWRFKASLFDTELKAAQDYDIFLRMVVEYGEPWKVEEATQILHINHGEMQITSSPKKFSGYFHFYRKHKDKFDRASKKYQLFTLYQIRNKRMTWRTLLTLLSVRNSKRLAAGLRGR”: the protein production entry is recorded as “failed”.

For “KNRLGTKALNFTYTLDSGVKGTLYQFPAEYTLLFINNPGCHACAEMIEGLKASPVINGFTAAKKLKVLSIYPDEELDEWKKHRNDFAKEWTNGYDKELVIKNKNLYDLRAIPTLYLLDKNKTVLLKDATLQKVEQYLAE”, the protein production entry is “not failed”.

Take “VTGSIRSKLSAIDVRQLGTVDYRTAWQLQRELADARVAGGADTLLLLEHPAVYTAGRRTETHERPIDGTPVVDTDRGGKITWHGPGQLVGYPIIGLAEPLDVVNYVRRLEESLIQVCADLGLHAGRVDGRSGVWLPGRPARKVAAIGVRVSRATTLHGFALNCDCDLAAFTAIVPCGISDAAVTSLSAELGRTVTVDEVRATVAAAVCAALDGVLPVGDRVPSHAVPSPL”: the protein production result is “not failed”.

Regarding “MRVTWEEAGWESVAPFVGRRRLPGWDCTVGLVIGDSAALMIDAGSSLREGALLRAEAQRLLGPGRRVTHLALTHPHFDHVFGAAAFSGVEVFGAVGLDTALAHGREELRADAVRNGLDPRAAEGAADLLVRPRHHVFGEWTLDLGGEVQVLLANVGPGHTAYDLAVLVSSSPEVVFCGDLVEESGEPQAGPDAIPSHWPAALDRLLDLGGQDAVYVPGHGATVDAAFVRTQRDELAARFGIA”, the protein production entry is on record as “failed”.

“SQLINLPMDQILYLSTSDIKHHVHLQTIHTLMDIRANLADFKKIHKKLYPCHRSYIVNTDMIISVNKTNYEATLINGQVLPVSRMKIGKIAQIVEERGR”: the protein production result is “not failed”.

With “MSQPSALPAADSLAALHPGFKSSALVWLGVMVALWGFSWPVMKICVGLAPPLWLAAIRFTSSGLCLFAFLACRGELRLPPRADWPIVASVGGLQMMAFTGLGLVAMQYTDAGRAALLAYTTPLWAVVTAWIAFGQRPTAAQGVALCVGLSGVAVICSPADMDWGDSTVLLGNALLLLSAMCWSFVILHVRRHRFTARPIDLAPWQMLLAALPLIVIAASVDGSPLTIAWTPELIGFLIYFGPIATSACFVISSEYGRRVSAFAMSNITLGVPVIGMLSSIFLLGERVTVPLIIGLTLIVSGVALAALAVNRKAAAGRADTALRSQAGKANWPTA”, the protein production result was “failed”.

Consider “MPEILINYKTNREDYKRQSKYCNICMRRYKSVKKNVIILALMIVFVFVFGTVAFHLIEGWNLFDSFFFTLITVSTVGYSIPENLSQAGKVIASILISAGVTIVLYGFTSVTSMIVEGHIGEYFKSRRMRKMIDRLKDHFIVVGAGRTGRHTTLEIMKAKKPFVVIDQSEEAIARLKDFLGEEFPYVVGDATEEEILMKAGVERARSLVVTLPDDAKSTFVVLTAKSLNPNLEIVSRVSDMKALSKLVYAGADKVIATSELAGVRLAQMALNPTTISFLDILSFGEESFRIEEVVIPPESPVANKTLGEINLAKRAGTIVIAIRRGGEVIFNPTGDTKILPEDRLMVVGKSDHFEKLHRLIEEG”, for which the protein production result was “failed”.
